Experimental data as given in patent US12018066 (TRIAD NATIONAL SECURITY, dated 2024).
Several values for one entry are separate records, joined by “and”; a condition that tells them apart may be missing. Equal entries are not always repeated. Where two headings read alike, the source gives them in different places.

Key:
[1] = biological target: T1, SARS-CoV-2 spike protein receptor binding domain (RBD2) (SARS-CoV-2, UniProt P0DTC2 319-537); experiment: SPR sandwich binning, ligand Anti-His
[2] = biological target: T1, SARS-CoV-2 spike protein receptor …; experiment: SPR sandwich binning, ligand H01
[3] = biological target: T1, SARS-CoV-2 spike protein receptor …; experiment: SPR
[4] = biological target: SARS-CoV-2 spike protein on whole SARS-CoV-2 virus (SARS-CoV-2, UniProt P0DTC2 14-1273); experiment: cell-based or functional assay
[5] = biological target: T1, SARS-CoV-2 spike protein receptor …; experiment: SPR sandwich binning, ligand B04
[6] = biological target: T1, SARS-CoV-2 spike protein receptor …; experiment: SPR sandwich binning, ligand H05
[7] = biological target: T1, SARS-CoV-2 spike protein receptor …; experiment: SPR sandwich binning, ligand NN54
[8] = biological target: T1, SARS-CoV-2 spike protein receptor …; experiment: SPR, immobilized antibody, RBD injected, 1:1 fit
[9] = biological target: T1, SARS-CoV-2 spike protein receptor …
[10] = biological target: T1, SARS-CoV-2 spike protein receptor …; experiment: SPR sandwich binning, ligand CR3022
[11] = biological target: T1, SARS-CoV-2 spike protein receptor …; experiment: SPR, IgG
[12] = biological target: T1, SARS-CoV-2 spike protein receptor …; experiment: SPR sandwich binning, ligand E08
[13] = biological target: T1, SARS-CoV-2 spike protein receptor …; experiment: SPR sandwich binning, ligand F07
[14] = biological target: T1, SARS-CoV-2 spike protein receptor …; experiment: SPR sandwich binning, ligand G07
[15] = biological target: T2, human ACE2 receptor on HEK cells (Human ACE2 293 cell line) (human, UniProt Q9BYF1 18-805); experiment: fluorescence microscopy, PE-labelled IgG on HEK-ACE2 cells without RBD2-sfGFP
T2 construct: whole, on cells; also called HEK-ACE2; ACE2 293 cells
T2 sequence (Q9BYF1 18-805): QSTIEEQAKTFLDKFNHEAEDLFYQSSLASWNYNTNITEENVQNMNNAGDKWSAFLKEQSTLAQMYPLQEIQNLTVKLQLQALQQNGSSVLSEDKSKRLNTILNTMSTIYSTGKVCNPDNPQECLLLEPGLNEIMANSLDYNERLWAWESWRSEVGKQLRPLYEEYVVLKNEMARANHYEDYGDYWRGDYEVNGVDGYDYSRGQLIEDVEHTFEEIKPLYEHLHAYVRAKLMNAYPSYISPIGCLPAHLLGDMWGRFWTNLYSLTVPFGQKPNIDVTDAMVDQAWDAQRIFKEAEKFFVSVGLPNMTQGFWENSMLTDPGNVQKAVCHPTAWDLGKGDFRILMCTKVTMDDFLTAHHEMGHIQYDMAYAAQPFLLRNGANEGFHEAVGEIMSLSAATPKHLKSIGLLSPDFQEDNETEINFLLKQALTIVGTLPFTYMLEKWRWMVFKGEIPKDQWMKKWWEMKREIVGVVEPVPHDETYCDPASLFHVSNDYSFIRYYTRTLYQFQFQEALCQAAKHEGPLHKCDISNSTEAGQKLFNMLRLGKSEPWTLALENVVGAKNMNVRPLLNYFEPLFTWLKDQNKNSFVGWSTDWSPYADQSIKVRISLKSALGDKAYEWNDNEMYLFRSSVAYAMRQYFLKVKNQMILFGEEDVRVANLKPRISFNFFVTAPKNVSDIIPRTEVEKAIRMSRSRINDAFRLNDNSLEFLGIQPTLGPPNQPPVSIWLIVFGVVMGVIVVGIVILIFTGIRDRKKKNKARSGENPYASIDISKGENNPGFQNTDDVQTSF

[16] = biological target: T1, SARS-CoV-2 spike protein receptor …; experiment: SPR sandwich binning, ligand S01
[17] = biological target: T1, SARS-CoV-2 spike protein receptor …; experiment: SPR sandwich binning, ligand E01
[18] = biological target: T1, SARS-CoV-2 spike protein receptor …; remark: listed apart in the source
[19] = biological target: T1, SARS-CoV-2 spike protein receptor …; experiment: flow cytometry, yeast-displayed scFv, titration of biotinylated antigen
[20] = biological target: T1, SARS-CoV-2 spike protein receptor …; experiment: flow cytometry, yeast-displayed scFv
[21] = biological target: T1, SARS-CoV-2 spike protein receptor …; experiment: flow cytometry, yeast-expressed scFv
[22] = biological target: T1, SARS-CoV-2 spike protein receptor …; remark: listed apart in the source

Binder | normalized analyte binding to RBD2 held by the immobilized ligand [1] | normalized analyte binding to RBD2 held by the immobilized ligand [2] | Kd [3] [nM] | NT50 (nM), half neutralization titer [4] [nM] | Nmax (%), neutralization maximum [4] [%] | normalized analyte binding to RBD2 held by the immobilized ligand [5] | normalized analyte binding to RBD2 held by the immobilized ligand [6] | normalized analyte binding to RBD2 held by the immobilized ligand [7] | Kd [8] [nM] | Kd [9] [nM] | normalized analyte binding to RBD2 held by the immobilized ligand [10] | Kd [11] | normalized analyte binding to RBD2 held by the immobilized ligand [12] | normalized analyte binding to RBD2 held by the immobilized ligand [13] | normalized analyte binding to RBD2 held by the immobilized ligand [14] | binding result [15] | normalized analyte binding to RBD2 held by the immobilized ligand [16] | normalized analyte binding to RBD2 held by the immobilized ligand [17] | Kd [18] [nM] | also measured
B04 IgG1 (antibody, V domains shown) VH: QVQLVESGAEVKKPGASVKVSCKASGYTFTRYYMHWVRQAPGQGLEWMGIINPSGGTTSYAQKFQGRVTMTRDTSTSTVYMELSSLRSEDTAVYYCARSFGELTSFDYWGQGTLVTVSS VL: SYVLTQPPSVSVAPGKTARITCGGNNIGIRSVHWYQQKPGQAPVLVIYYDSDRPSGIPERFSGSKSGNTATLTISRVEAGDEADYYCQVWDSSSDHPVFGGGTKLTVL | 1.68 | 0.71 | 210 | 56.7 | 53.3 | -0.11 | 1.87 | 2.5 | 210 | 208 | 2.22 | 100 nM and 300 nM | 2.24 | 0.05 | -0.07 | no binding (tested: 1 ug/mL) | -0.59 | -0.15 | – | –
F07 IgG1 (antibody, V domains shown) VH: QVQLVQSGAEVKKPGSSVRVSCKVSGYTFTGYYMHWVRQAPGQGLEWMGIINPSGGSTSYAQKFQGRVTMTRDTSTSTVYMELSSLRSEDTAVYYCARVRVGASDAFDIWGQGTMVTVSS VL: SYVLTQPPSVSVAPGQTARITCGGNNIGSKSVHWYQQKPGQAPVLVVYDDSDRPSGIPERFSGSNSGNTATLIISRVEAGDEADYYCQVWDSSSVHYVFGTGTKLTVL | 1.48 | 0.1 | 300 | 45.2 | 74.7 | -0.05 | 1.39 | 2.34 | 300 | 300 | 0.9 | – | 1.78 | 0.07 | 0.14 | no binding (tested: 1 ug/mL) | 1.28 | 1.9 | – | –
S01 IgG1 (antibody, V domains shown, also called 501) VH: QVQLVESGGGLVKPGGSLRLSCAASGFTVGSNYMSWVRQAPGKGLEWVSVIYSGGSTYYADSVKGRFTISRDNSKNTLYLQMNSLRAEDTAVYYCARGSSGAWYFDLWGRGTLVTVSS VL: EIVMTQSPSSLSASVGDSVTITCQASQDISNYLNWYQQKPGKAPKLLIYDASNLETGVPSRFSGGGSGTDFTLTITSLQPEDIATYYCQQYDNFPPTFGPGTKVDIK | 1 | -0.03 | 170 | 14.6 | 106 | 0.06 | 1.2 | 1.64 | 170 | – | 1.39 | – | 1.79 | 0.48 | – | no binding (tested: 1 ug/mL) | -0.03 | -0.13 | 174 | –
E01 IgG1 (antibody, V domains shown, also called E1) VH: QVQLQQWGAGLLKPSETLSLKCAVYGGSFSGYYWGWIRQSTGKGLEWIGEINRSGSTNYNPSLKSRVTISVDTSKNQFSLKLSSVTAADTAVYYCARGGARYYYGSGSYRSTPRPYYFDYWGQGTLVTVSS VL: SYELTQPPSVSVAPGETARITCGGDNIGRRHVHWYQQKPGQAPVLVIYDDSDRPSGIPDRFSGSNSGNTATLTIGRVEAGDEADYYCQVWGSSNDPHVFGTGTKLTVL | 2 | 2.35 | 90 | 6.4 | 104 | -0.09 | 2.18 | 2.78 | 90 | – | 2.39 | 48 nM | 2.33 | 0.62 | 2.43 | – | 0.03 | -0.07 | 90 | –
H05 IgG1 (antibody, V domains shown, also called H5; HO5) VH: QVQLVQSGAEVKKPGSSVKVSCKASGGTFSSYAISWVRQAPGQGLEWMGGIIPIFGTANYAQKFQGRVTITADESTSTAYMELSSLRSEDTAVYYCARSIFGVVIISHADGYYYGMDVWGQGTTVTVSS VL: SYVLTQPPSVSVAPGQTARITCGANNIGRISVHWYQQKPGQAPVLVVYDDSDRPSGIPERFSGSNFGNTATLTISRVEAGDEADYYCQVWDSYSDHVIFGGGTKLTVL | 1.35 | -0.1 | 51 | – | – | 1.75 | -0.17 | – | 51 | 46 | -0.15 | – | -0.12 | 0.9 | 0.9 | – | 1.73 | 1.81 | – | –
R04 scFv (scFv) scFv: EIVMTQSPSSLSASVGDRVTITCQASQDISNYLNWCQQKPGKAPKLLIYDASNLETGVPSRFSGSGSGTGFTFTISSLQPEDFATYYCQQSYSTPYTFGQGTKVEIKSGGSTITSYNVNYTKLSSSGAQVQLQQSGPGLVKSSQTLSLTCAISGDSVSSNGAAWHWIRQSPSRGLEWLGRTYYRSGWYNDYAVSVKSRITINQDTSKNQFSLQLNSVTPEDTAVYFCAREGGGGRMDVWSQGTTVTVSS | – | – | – | – | – | – | – | – | – | – | – | – | – | – | – | – | – | – | – | Kd [19]: 293 nM; Kd [20]: 293 nM; Kd [21]: > 280 nM and < 421 nM and 423 nM; Kd [22]: 293 nM
